This series deals with the molecule itself. Kind of series: non-reducing SDS-PAGE and immunoblot.

B1: PRDX4, murine islets (enzyme, mouse (endogenous in murine islets), UniProt O08807 41-274, looked up)
chain: LESDERFRTRENECHFYAGGQVYPGEASRVSVADHSLHLSKAKISKPAPYWEGTAVINGEFKELKLTDYRGKYLVFFFYPLDFTFVCPTEIIAFGDRIEEFKSINTEVVACSVDSQFTHLAWINTPRRQGGLGPIRIPLLSDLNHQISKDYGVYLEDSGHTLRGLFIIDDKGVLRQITLNDLPVGRSVDETLRLVQAFQYTDKHGEVCPAGWKPGSETIIPDPAGKLKYFDKLN
For the protein B1, the “stoichiometry N” value was 2.

The stoichiometry N is the number of molecules, sites or subunits per partner or assembly.

Source of the values: publication doi:10.1101/699132 (bioRxiv, 2020).
